Changes are numbered by the printed parent chain.

To fix the notation:
B1: UGT76G1var7: UGT76G1 variant, mutations F22L_I43V_A239V (protein, UniProt Q6VAB4 1-458, looked up, variant F22L I43V A239V)
UDP-glycosyltransferase 76G1: MENKTETTVRRRRRIILFPVPLQGHINPILQLANVLYSKGFSVTIFHTNFNKPKTSNYPHFTFRFILDNDPQDERISNLPTHGPLAGMRIPIINEHGADELRRELELLMLASEEDEEVSCLITDALWYFAQSVADSLNLRRLVLMTSSLFNFHAHVSLPQFDELGYLDPDDKTRLEEQASGFPMLKVKDIKSAYSNWQILKEILGKMIKQTKASSGVIWNSFKELEESELETVIREIPVPSFLIPLPKHLTASSSSLLDHDRTVFQWLDQQPPSSVLYVSFGSTSEVDEKDFLEIARGLVDSKQSFLWVVRPGFVKGSTWVEPLPDGFLGERGRIVKWVPQQEVLAHGAIGAFWTHSGWNSTLESVCEGVPMIFSDFGLDQPLNARYMSDVLKVGVYLENGWERGEIANAIRRVMVDEEGEYIRQNARVLKQKADVSLMKGGSSYESLESLVSYISSL
B2: UGT76G1var8: UGT76G1 variant, mutations E224A_Q266S_Q342E (protein, UniProt Q6VAB4 1-458, looked up, variant E224A Q266S Q342E)
UDP-glycosyltransferase 76G1: B1 UDP-glycosyltransferase 76G1 with L22F, V43I, E224A, V239A, Q266S, Q342E
B3: UGT76G1var10: UGT76G1 variant, mutations A33G_L246F_Q342E (protein, UniProt Q6VAB4 1-458, looked up, variant A33G L246F Q342E)
UDP-glycosyltransferase 76G1: B1 UDP-glycosyltransferase 76G1 with L22F, A33G, V43I, V239A, L246F, Q342E
B4: UGT76G1var30: UGT76G1 variant, mutations I43V_E224A_S241I (protein, UniProt Q6VAB4 1-458, looked up, variant I43V E224A S241I)
UDP-glycosyltransferase 76G1: B1 UDP-glycosyltransferase 76G1 with L22F, E224A, V239A, S241I
B5: UGT76G1var14: UGT76G1 variant, mutations A239I_F265I_V396F (protein, UniProt Q6VAB4 1-458, looked up, variant A239I F265I V396F)
UDP-glycosyltransferase 76G1: B1 UDP-glycosyltransferase 76G1 with L22F, V43I, V239I, F265I, V396F
B6: UGT76G1var11: UGT76G1 variant, mutations F22L_A33G_V310I (protein, UniProt Q6VAB4 1-458, looked up, variant F22L A33G V310I)
UDP-glycosyltransferase 76G1: B1 UDP-glycosyltransferase 76G1 with A33G, V43I, V239A, V310I
B7: UGT76G1var15: UGT76G1 variant, mutations F41L_L246F_Q425E (protein, UniProt Q6VAB4 1-458, looked up, variant F41L L246F Q425E)
UDP-glycosyltransferase 76G1: B1 UDP-glycosyltransferase 76G1 with L22F, F41L, V43I, V239A, L246F, Q425E
B8: UGT76G1var32: UGT76G1 variant, mutations A239V_L243A_S375M (protein, UniProt Q6VAB4 1-458, looked up, variant A239V L243A S375M)
UDP-glycosyltransferase 76G1: B1 UDP-glycosyltransferase 76G1 with L22F, V43I, L243A, S375M
B9: UGT76G1var22: UGT76G1 variant, mutations E231A_V310I_R334K (protein, UniProt Q6VAB4 1-458, looked up, variant E231A V310I R334K)
UDP-glycosyltransferase 76G1: B1 UDP-glycosyltransferase 76G1 with L22F, V43I, E231A, V239A, V310I, R334K
B10: UGT76G1var33: UGT76G1 variant, mutations A33G_R334H_Y397Q (protein, UniProt Q6VAB4 1-458, looked up, variant A33G R334H Y397Q)
UDP-glycosyltransferase 76G1: B1 UDP-glycosyltransferase 76G1 with L22F, A33G, V43I, V239A, R334H, Y397Q
B11: UGT76G1var31: UGT76G1 variant, mutations E224D_L243P_V300A (protein, UniProt Q6VAB4 1-458, looked up, variant E224D L243P V300A)
UDP-glycosyltransferase 76G1: B1 UDP-glycosyltransferase 76G1 with L22F, V43I, E224D, V239A, L243P, V300A
B12: UGT76G1var13: UGT76G1 variant, mutations L243A_S357C_A385T (protein, UniProt Q6VAB4 1-458, looked up, variant L243A S357C A385T)
UDP-glycosyltransferase 76G1: B1 UDP-glycosyltransferase 76G1 with L22F, V43I, V239A, L243A, S357C, A385T
B13: UGT76G1var29: UGT76G1 variant, mutations F22Y_V279I_N409R (protein, UniProt Q6VAB4 1-458, looked up, variant F22Y V279I N409R)
UDP-glycosyltransferase 76G1: B1 UDP-glycosyltransferase 76G1 with L22Y, V43I, V239A, V279I, N409R
B14: UGT76G1var17: UGT76G1 variant, mutations F265L_Q266E_Q342K (protein, UniProt Q6VAB4 1-458, looked up, variant F265L Q266E Q342K)
UDP-glycosyltransferase 76G1: B1 UDP-glycosyltransferase 76G1 with L22F, V43I, V239A, F265L, Q266E, Q342K
B15: UGT76G1var34: UGT76G1 variant, mutations I43V_T284I_I295T (protein, UniProt Q6VAB4 1-458, looked up, variant I43V T284I I295T)
UDP-glycosyltransferase 76G1: B1 UDP-glycosyltransferase 76G1 with L22F, V239A, T284I, I295T
B16: UGT76G1var20: UGT76G1 variant, mutations S375M_K393G_Y397E (protein, UniProt Q6VAB4 1-458, looked up, variant S375M K393G Y397E)
UDP-glycosyltransferase 76G1: B1 UDP-glycosyltransferase 76G1 with L22F, V43I, V239A, S375M, K393G, Y397E
B17: UGT76G1var19: UGT76G1 variant, mutations E224D_E229A_Q432E (protein, UniProt Q6VAB4 1-458, looked up, variant E224D E229A Q432E)
UDP-glycosyltransferase 76G1: B1 UDP-glycosyltransferase 76G1 with L22F, V43I, E224D, E229A, V239A, Q432E
B18: UGT76G1var23: UGT76G1 variant, mutations T263S_G348P_A352G (protein, UniProt Q6VAB4 1-458, looked up, variant T263S G348P A352G)
UDP-glycosyltransferase 76G1: B1 UDP-glycosyltransferase 76G1 with L22F, V43I, V239A, T263S, G348P, A352G
B19: UGT76G1var12: UGT76G1 variant, mutations L243P_K303G_A352G (protein, UniProt Q6VAB4 1-458, looked up, variant L243P K303G A352G)
UDP-glycosyltransferase 76G1: B1 UDP-glycosyltransferase 76G1 with L22F, V43I, V239A, L243P, K303G, A352G
B20: UGT76G1var26: UGT76G1 variant, mutations S241I_F265L_F377C (protein, UniProt Q6VAB4 1-458, looked up, variant S241I F265L F377C)
UDP-glycosyltransferase 76G1: B1 UDP-glycosyltransferase 76G1 with L22F, V43I, V239A, S241I, F265L, F377C
B21: UGT76G1var25: UGT76G1 variant, mutations T284L_Q342K_Y397Q (protein, UniProt Q6VAB4 1-458, looked up, variant T284L Q342K Y397Q)
UDP-glycosyltransferase 76G1: B1 UDP-glycosyltransferase 76G1 with L22F, V43I, V239A, T284L, Q342K, Y397Q
B22: UGT76G1var9: UGT76G1 variant, mutations E231A_D301N_G348P (protein, UniProt Q6VAB4 1-458, looked up, variant E231A D301N G348P)
UDP-glycosyltransferase 76G1: B1 UDP-glycosyltransferase 76G1 with L22F, V43I, E231A, V239A, D301N, G348P
B23: UGT76G1var24: UGT76G1 variant, mutations A239I_P272A_Q425E (protein, UniProt Q6VAB4 1-458, looked up, variant A239I P272A Q425E)
UDP-glycosyltransferase 76G1: B1 UDP-glycosyltransferase 76G1 with L22F, V43I, V239I, P272A, Q425E
B24: UGT76G1var21: UGT76G1 variant, mutations A239V_V300A_K303G (protein, UniProt Q6VAB4 1-458, looked up, variant A239V V300A K303G)
UDP-glycosyltransferase 76G1: B1 UDP-glycosyltransferase 76G1 with L22F, V43I, V300A, K303G
B25: UGT76G1var16: UGT76G1 variant, mutations F265I_P272A_I335V (protein, UniProt Q6VAB4 1-458, looked up, variant F265I P272A I335V)
UDP-glycosyltransferase 76G1: B1 UDP-glycosyltransferase 76G1 with L22F, V43I, V239A, F265I, P272A, I335V
B26: UGT76G1var27: UGT76G1 variant, mutations A239I_L379A_V394I (protein, UniProt Q6VAB4 1-458, looked up, variant A239I L379A V394I)
UDP-glycosyltransferase 76G1: B1 UDP-glycosyltransferase 76G1 with L22F, V43I, V239I, L379A, V394I
B27: UGT76G1var28: UGT76G1 variant, mutations L243A_S274G_P382M (protein, UniProt Q6VAB4 1-458, looked up, variant L243A S274G P382M)
UDP-glycosyltransferase 76G1: B1 UDP-glycosyltransferase 76G1 with L22F, V43I, V239A, L243A, S274G, P382M
B28: UGT76G1var18: UGT76G1 variant, mutations L243P_S274G_N409R (protein, UniProt Q6VAB4 1-458, looked up, variant L243P S274G N409R)
UDP-glycosyltransferase 76G1: B1 UDP-glycosyltransferase 76G1 with L22F, V43I, V239A, L243P, S274G, N409R

This data set is described as follows: Directed evolution of UGT76G1, Rebaudioside D to Rebaudioside M, round 1 (Example 26). The format is biochemical. The conditions noted are these: 100 μL fresh lysate, 0.5 mM Rebaudioside D, 30° C., pH 7.2. The method, then: Lysis was performed by addition of Bugbuster® Master mix (Novagen®) to the thawed cells and the lysate was recovered by centrifugation. Activity tests were performed with 100 μL of fresh lysate that was added to a solution of Rebaudioside D (final concentration 0.5 mM), MgCl2 (final concentration 3 mM) and UDP-Glucose (final concentration 2.5 mM) in 50 mM phosphate buffer pH 7.2.
The reaction was allowed to run at 30° C. and samples were taken after 2, 4, 7 and 24 h. to determine conversion and initial rate by HPLC (CAD detection) using the analytical method that was described above for the transformation of Rebaudioside D to Rebaudioside M. The results are depicted in the following table.
Regarding B1, the “conversion Reb D to Reb M after 24 h” value amounted to 0.2% and the initial rate is recorded as −6.0E+04 Reb M area/min.
Taken in the same sequence, the figures for B2 were 0.5% and 2.3E+04 Reb M area/min.
Taken in the same sequence, the figures for B3 were 0.3% and −7.7E+02 Reb M area/min.
B4 came in with an initial rate of 5.6E+06 Reb M area/min.
On to B5, for which the “conversion Reb D to Reb M after 24 h” value is listed as 5.3% and the initial rate turned out to be 1.5E+06 Reb M area/min.
In the case of B6, the “conversion Reb D to Reb M after 24 h” value came out at 0.4% and the initial rate is 3.8E+04 Reb M area/min.
Taken in the same sequence, the figures for B7 were 5.6% and 1.5E+06 Reb M area/min.
Regarding B8, the “conversion Reb D to Reb M after 24 h” value was 0.0% and the initial rate is −4.4E+04 Reb M area/min.
Turning to B9, the initial rate is listed as 2.4E+07 Reb M area/min.
For B10, the “conversion Reb D to Reb M after 24 h” value was found to be 1.0% and the initial rate is 7.5E+06 Reb M area/min.
Taken in the same sequence, the figures for B11 were 0.4% and 2.4E+05 Reb M area/min.
Taken in the same sequence, the figures for B12 were 0.2% and −3.3E+04 Reb M area/min.
Taken in the same sequence, the figures for B13 were 41.0% and 2.9E+07 Reb M area/min.
As to B14, the “conversion Reb D to Reb M after 24 h” value is 0.7% and the initial rate turned out to be 7.2E+05 Reb M area/min.
Taken in the same sequence, the figures for B15 were 3.4% and 1.5E+06 Reb M area/min.
Taken in the same sequence, the figures for B16 were 1.8% and 1.9E+06 Reb M area/min.
In the case of B17, the initial rate is reported as 5.5E+06 Reb M area/min.
Still for that read-out and setting: for B18 the value was 4.1E+07 Reb M area/min.
For the molecule B19, the “conversion Reb D to Reb M after 24 h” value worked out at 0.5% and the initial rate is given as 8.7E+04 Reb M area/min.
Taken in the same sequence, the figures for B20 were 1.8% and 7.5E+05 Reb M area/min.
Taken in the same sequence, the figures for B21 were 0.9% and 6.3E+04 Reb M area/min.
Taken in the same sequence, the figures for B22 were 52.0% and 4.9E+07 Reb M area/min.
On to B23, for which the “conversion Reb D to Reb M after 24 h” value stood at 31.0% and the initial rate is 2.1E+07 Reb M area/min.
The molecule B24 displayed an initial rate of 3.3E+07 Reb M area/min.
B25 displayed an initial rate of 5.8E+06 Reb M area/min.
On to B26, for which the “conversion Reb D to Reb M after 24 h” value is 29.0% and the initial rate was 1.5E+07 Reb M area/min.
Taken in the same sequence, the figures for B27 were 6.1% and 2.4E+06 Reb M area/min.
On to B28, for which the “conversion Reb D to Reb M after 24 h” value was determined as 1.9% and the initial rate is 5.0E+05 Reb M area/min.

The values are drawn from patent US11653679B2, “High-purity steviol glycosides” (PureCircle Sdn Bhd, priority 2014, dated 2023).
